{"source": "paper doi:10.1101/2025.05.23.655736", "about": "(bioRxiv, 2025)", "molecular_target": "T1, CHAP domain of Streptococcus pneumoniae PcsB (residues A274-D392) (Streptococcus pneumoniae, UniProt Q8DMY4 274-392)", "T1 sequence (looked up)": "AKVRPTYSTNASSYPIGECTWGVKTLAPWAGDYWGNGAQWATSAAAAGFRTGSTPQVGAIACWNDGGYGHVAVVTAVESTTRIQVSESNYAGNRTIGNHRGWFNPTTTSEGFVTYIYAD", "experiment": "SPR", "data": [{"binder": "AQKAA (D-isoglutamine at position 2 (iQ); D-alanine at positions 4 and 5)", "note": "[synthetic pneumococcal stem pentapeptide L-Ala-D-isoGln-L-Lys-D-Ala-D-Ala]", "values": [{"measurement": "fold change of KD against AEKADAD", "result": "~15", "unit": "fold"}]}]}
